Assay results taken from US20180265882, “PLANTS WITH INCREASED SEED SIZE” (THE INSTITUTE OF GENETICS AND DEVELOPMENTAL BIOLOGY, published 2018).

Key:
[1] = target: T1, SOD7 (NGAL2, At3g11580) (Arabidopsis thaliana, UniProt Q8RYD3 SEQ:1-267); assay: EMSA; binding reduced by unlabeled probe A; conditions: tags: N-terminal MBP fusion (pMAL-C2), expressed in E. coli BL21(DE3), amylose purified; label: biotin
T1 sequence: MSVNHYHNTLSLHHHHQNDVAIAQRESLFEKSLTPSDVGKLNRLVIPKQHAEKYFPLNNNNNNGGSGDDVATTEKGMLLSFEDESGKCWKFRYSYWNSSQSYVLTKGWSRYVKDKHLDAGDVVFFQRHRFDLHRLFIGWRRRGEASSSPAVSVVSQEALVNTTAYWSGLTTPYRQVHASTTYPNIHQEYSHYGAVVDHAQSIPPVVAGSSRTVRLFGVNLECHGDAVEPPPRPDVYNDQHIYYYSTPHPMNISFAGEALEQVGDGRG
Procedure: (§1) (A) Expression dynamics of SOD7 and KLU in pER8-SOD7 transgenic plants treated with β-estradiol for 0, 4 and 8 hours. Means were calculated from three biological samples. Values are given as mean±SD. **, P<0.01, compared with the expression level of KLU and SOD7 at 0 hour, respectively (Student's t-test). (B) A 2-kb promoter region of KLU upstream of its ATG codon contains a CACTTG sequence. PF1 and PF2 represent PCR fragments used for ChIP-quantitative PCR analysis. A and A-m indicate the wild-type probe and the mutated probe used in the EMSA essay, respectively. […] Chromatin from 35S:GFP and 35S:GFP-SOD7 transgenic plants was immunoprecipitated by anti-GFP, and the enrichment of the fragments was determined by quantitative real-time PCR. The ACTIN7 promoter was used as a negative control. The fold enrichment was normalized to the ACTIN7 amplicon, set at 1. Means were calculated from three biological samples. Values are given as mean±SD. **, P<0.01, compared with 35S:GFP transgenic plants (Student's t-test). (D) Direct interaction between SOD7 and the KLU promoter determined by EMSA. […] The retarded DNA-protein complex was reduced by competition using the unlabeled probe A.
(§2) The coding sequence of SOD7 was cloned into the NdeI and BamHI sites of the pMAL-C2 vector to generate the construct MBP-SOD7. […]

[2] = target: T1, SOD7 (NGAL2, At3g11580); assay: EMSA; mutated CACTTG, failed to bind; conditions: tags: N-terminal MBP fusion (pMAL-C2), expressed in E. coli BL21(DE3), amylose purified; label: biotin
Procedure: as §1, §2

B1: KLU promoter probe A (dsDNA)
DNA 1: TTCTACTACACTTGCTCTCTGTA
DNA 2: TACAGAGAGCAAGTGTAGTAGAA
binding result [1]: binds

B2: KLU promoter probe A-m (dsDNA)
DNA 1: TTCTACTAACACCTCTCTCTGTA
DNA 2: TACAGAGAGAGGTGTTAGTAGAA
binding result [2]: no binding
